Data: patent publication US9920133B2, “Anti-tissue factor monoclonal antibody” (NATIONAL CANCER CENTER, priority 2014, dated 2018)

Assays:
[1] = test system: Mouse B16 melanoma cells and cells thereof that were forced to express TF; experiment: Internalization assay (anti-mTF antibody); type: cell-based; conditions: mouse B16 melanoma cells and TF-forced-expression cells, 30 μg Alexa 647-labeled antibody, 3 hours
Method: (§1) Each monoclonal antibody obtained as described above was subjected to the following internalization assay.
(§2) Mouse B16 melanoma cells and cells thereof that were forced to express TF were seeded into a four-chamber Culture Slide (BD) at 5×10^4 cells/chamber, and cultured in RPMI 1640 medium at 37° C. under a 5% CO2 environment for 12 hours. The resultant was washed three times with PBS, and then 30 μg of antibody labeled with an Alexa 647 fluorescence labeling kit (Invitrogen) was diluted with 1 ml of RPMI 1640 medium and added to each chamber, followed by culturing for 3 hours. After 2 hours from the initiation of this culturing, Lysotracker® RED-DND99 (Invitrogen) was added to the culture solution to have a final concentration of 75 nM, followed by further culturing for 1 hour. Then, the resultant was washed three times with PBS. After that, immobilization was performed with 4% paraformaldehyde, and nuclear staining was performed with 4′,6-diamidino-2-phenylindole (DAPI), followed by mounting with Fluoromount-G® (Southern Biotech). Then, the cells were observed using a fluorescence microscope (Keyence).

[2] = test system: Pancreatic cancer cells BxPC3 that express TF in high amounts; experiment: Internalization assay (anti-hTF antibodies); type: cell-based, human; conditions: 30 μg Alexa 647-labeled antibody, culturing for 3 hours, fluorescence microscope
Method: as §1
as §2, with “Pancreatic cancer” for “Mouse B16 melanoma”, “BxPC3” for “and cells thereof”, “that” for “that were forced to”, “TF in high amounts” for “TF”

[3] = test system: Human pancreatic cancer cells (BxPC3); experiment: Cytocidal effect confirmation test; type: cell-based; conditions: BxPC3, 72 hours after addition, compared to mTF-MMAE
Method: Human pancreatic cancer cells (BxPC3) were added to a 96-well plate at 3×10^3 cells/well, and cultured in RPMI medium containing 10% FCS, penicillin (100 U/ml), and streptomycin (100 μg/ml) hTF-MMAE was added to the wells at various drug concentrations, and cell survival rates 72 hours after the addition were calculated.
It should be noted that, as a comparative test, a similar test was performed using, in place of hTF-MMAE, mTF-MMAE obtained by binding MMAE, in the same manner as above, to a monoclonal antibody (mTF) against mouse TF not expressed in human cancer cells, and a cell survival rate was calculated. The ratio (%) of each cell survival rate, with the cell survival rate of a negative control (no addition of a drug sample) being defined as 100%, is shown in FIG. 3.

[4] = test system: human pancreatic cancer cells (BxPC3) implanted subcutaneously; experiment: Antitumor effect confirmation test (tumor volume); type: in vivo, nude mice (BALBc nu/nu); conditions: BxPC3 xenograft nude mice, 10 mg/kg tail vein on Day 0, 4, 8, until Day 30
Method: (§3) 1×10^7 cells/100 μL of human pancreatic cancer cells (BxPC3) were implanted subcutaneously into the backs of 4-week-old nude mice (BALBc nu/nu, female), and treatment was initiated when the tumor volume (calculated based on the tumor diameter) reached about 200 mm^3. The day of initiation of the treatment was defined as Day 0, and a drug was administered to the tail vein once on each of Day 0, Day 4, and Day 8 (administration three times in total). hTF-MMAE was used as the drug, and physiological saline was administered as a control (each group: N=7). The dose of the drug was 10 mg/kg per administration (antibody amount: about 200 μg/mouse). Thereafter, the tumor diameter and the body weight were measured twice a week until Day 30. The ratios of the tumor volume and the body weight to the tumor volume and the body weight at Day 0 are shown in FIG. 4 and FIG. 5, respectively.

[5] = Body weight in the antitumor effect confirmation test; type: in vivo, nude mice (BALBc nu/nu); conditions: BxPC3 xenograft nude mice, 10 mg/kg tail vein on Day 0, 4, 8, until Day 30
Method: as §3

recombinant hTF antigen = target: T1, recombinant hTF antigen (Homo sapiens, UniProt P13726); experiment: Anticoagulant activity evaluation (prothrombin time); type: biochemical; conditions: based on prolonged coagulation time ratio
T1 construct: made in house; host or cells: Escherichia coli
T1 sequence (P13726 with tags, fused parts or gaps): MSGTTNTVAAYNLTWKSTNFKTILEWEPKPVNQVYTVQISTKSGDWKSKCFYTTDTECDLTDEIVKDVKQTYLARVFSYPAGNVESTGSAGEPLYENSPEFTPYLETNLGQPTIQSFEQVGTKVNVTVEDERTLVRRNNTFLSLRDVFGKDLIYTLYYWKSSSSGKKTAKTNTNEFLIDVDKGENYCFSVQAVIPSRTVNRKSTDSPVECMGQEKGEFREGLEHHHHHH
Method: The prothrombin time of each of the anti-hTF monoclonal antibodies (No. 1849 and No. 1859) was measured as described below.
3 μg of the antibody was added to 350 ng of a recombinant hTF antigen, and PBS was added to a total volume of 5 μl. An antigen-antibody reaction was performed for 15 minutes under shaking at 37° C. and 600 rpm. To the reaction solution, 50 μl of human […] subjected to anticoagulant treatment with 3.8% sodium citrate, and 100 μl of 25 mM CaCl2 were added, and at the same time, culturing was performed under shaking at 37° C. and 600 rpm. The period of time until a fibrin clot was formed (prothrombin time) was measured. The prolonged coagulation time ratio (prothrombin time ratio) of each antibody when the prothrombin time in a control using PBS in place of the reaction solution is defined as 1 are shown in Table 3 and FIG. 2.

B1: No. 1157: anti-mouse tissue factor monoclonal antibody, heavy/light chain variable regions SEQ ID NOS: 25 and 26 (antibody, V domains shown)
VH: MAEVMLVESGGGLVQPGRSLKLSCLASGFTFTDYGMNWIRQTPGKGLEWVASITVRNYIYYADTVKGRFTISRENAKNTLYLQMTSLTSEDTALYYCSRRTEGMDYWGQGVMVTVSS
VL: MTQSPSFLSASVGDRVTVTCKVSQNINGYLNWYQQKVGEAPKVLIYNTDNLQTDVPSRFSGSGSGTVFTLTISSLHPEDVATHFCLQHYSWPLTFGSGTQLEIKR
modifications: rat
With B1 the “ability to be internalized (fluorescence-labeled antibody transferred into cells)” value [1] was “had the ability to be internalized by a cell expressing mTF”.

B2: No. 1849: rat anti-human tissue factor monoclonal antibody, heavy/light chain variable regions SEQ ID NOS: 9 and 10 (antibody, V domains shown)
VH: EVQLVESGGGLVQSGRSLKLSCAASGFTFSDYNMAWIRQAPKKGLEWVAAIIYDGTRTYYRDSVRGRFTISRDNAKSTLYLQVDSLRSEDTATYYCATGDSYTNFAYWGQGTLVTVSS
VL: EIVLTQSPTTMAASPGEKVTLTCRASSSLSYMHWYQQRSGTSPKLWIYETSKLASGVPNRFSGSGSGTSFSLTIDSMETEDAATYYCQQGNSYPRTFGGGTKLELK
modifications: rat
With B2 the “ability to be internalized (labeling substance transferred into cells)” value [2] was “had the ability to be internalized”.

B3: hTF-MMAE: anti-hTF monoclonal antibody (No. 1849) having monomethyl auristatin E (MMAE) bound thereto, three to five MMAE molecules per antibody (conjugate)
VH: EVQLVESGGGLVQSGRSLKLSCAASGFTFSDYNMAWIRQAPKKGLEWVAAIIYDGTRTYYRDSVRGRFTISRDNAKSTLYLQVDSLRSEDTATYYCATGDSYTNFAYWGQGTLVTVSS
VL: EIVLTQSPTTMAASPGEKVTLTCRASSSLSYMHWYQQRSGTSPKLWIYETSKLASGVPNRFSGSGSGTSFSLTIDSMETEDAATYYCQQGNSYPRTFGGGTKLELK
modifications: non-natural residues
With B3 the “cytocidal effect (cell survival rate)” value [3] was “remarkably excellent cytocidal effect”, the “antitumor effect (tumor volume ratio to Day 0)” value [4] was “remarkably excellent antitumor effect” and the “body weight (ratio to Day 0)” value [5] was “a reduction in body weight was not found”.

B4: No. 1859: anti-human tissue factor monoclonal antibody, heavy/light chain variable regions SEQ ID NOS: 17 and 18 (antibody, V domains shown)
VH: EVMLVESGPGLVQPSQTLSLICTVSGFSLTDYSVHWVRQPPGKGLEWVGVMWSGGTTTFNSGLKSRLSISRDTSKSQVFLKMYSLRTEDTAVYYCTRERAGSPLNWFAYWGQGTLVTVSS
VL: DIVMTQSPASLSASLEEIVTITCQASQDIGNYLSWYQQKPGKSPHLLIHSSTSLADGVPSRFSGSRSGTQYSLKINRLQVEDTGVYYCLQHYSGSRTFGGGTNLELK
modifications: rat
In the case of B4, the “ability to be internalized (labeling substance transferred into cells)” value [2] is reported as “had the ability to be internalized” and the anticoagulant activity (recombinant hTF antigen) is reported as “extremely small”.
